Measured values from patent publication US20200408770A1 (NITTO BOSEKI, published 2020).

Legend:
[1] = molecular target: T1, Ki-67 antigen (MKI67: Marker Of Proliferation Ki-67) (human, UniProt P46013 1-3256); test: flow cytometry, formalin-fixed T47D cells, thrombin treatment done; share of nuclei above the 95 percentile of the isotype control
T1 construct: Formalin-crosslinked and possibly partly cleaved; also called K-67

[2] = molecular target: T1, Ki-67 antigen (MKI67: Marker Of …); test: flow cytometry, formalin-fixed SKBr3 cells, thrombin treatment done; share of nuclei above the 95 percentile of the isotype control
[3] = molecular target: T1, Ki-67 antigen (MKI67: Marker Of …); test: flow cytometry, formalin-fixed T47D cells, thrombin treatment not done; share of nuclei above the 95 percentile of the isotype control
[4] = molecular target: T1, Ki-67 antigen (MKI67: Marker Of …); test: flow cytometry, formalin-fixed SKBr3 cells, thrombin treatment not done; share of nuclei above the 95 percentile of the isotype control
[5] = molecular target: T1, Ki-67 antigen (MKI67: Marker Of …); test: flow cytometry, formalin-fixed MDA-MB-231 cells, thrombin treatment done; share of nuclei above the 95 percentile of the isotype control
[6] = molecular target: T1, Ki-67 antigen (MKI67: Marker Of …); test: flow cytometry, formalin-fixed MDA-MB-231 cells, thrombin treatment not done; share of nuclei above the 95 percentile of the isotype control

T1 sequence (P46013 whole entry): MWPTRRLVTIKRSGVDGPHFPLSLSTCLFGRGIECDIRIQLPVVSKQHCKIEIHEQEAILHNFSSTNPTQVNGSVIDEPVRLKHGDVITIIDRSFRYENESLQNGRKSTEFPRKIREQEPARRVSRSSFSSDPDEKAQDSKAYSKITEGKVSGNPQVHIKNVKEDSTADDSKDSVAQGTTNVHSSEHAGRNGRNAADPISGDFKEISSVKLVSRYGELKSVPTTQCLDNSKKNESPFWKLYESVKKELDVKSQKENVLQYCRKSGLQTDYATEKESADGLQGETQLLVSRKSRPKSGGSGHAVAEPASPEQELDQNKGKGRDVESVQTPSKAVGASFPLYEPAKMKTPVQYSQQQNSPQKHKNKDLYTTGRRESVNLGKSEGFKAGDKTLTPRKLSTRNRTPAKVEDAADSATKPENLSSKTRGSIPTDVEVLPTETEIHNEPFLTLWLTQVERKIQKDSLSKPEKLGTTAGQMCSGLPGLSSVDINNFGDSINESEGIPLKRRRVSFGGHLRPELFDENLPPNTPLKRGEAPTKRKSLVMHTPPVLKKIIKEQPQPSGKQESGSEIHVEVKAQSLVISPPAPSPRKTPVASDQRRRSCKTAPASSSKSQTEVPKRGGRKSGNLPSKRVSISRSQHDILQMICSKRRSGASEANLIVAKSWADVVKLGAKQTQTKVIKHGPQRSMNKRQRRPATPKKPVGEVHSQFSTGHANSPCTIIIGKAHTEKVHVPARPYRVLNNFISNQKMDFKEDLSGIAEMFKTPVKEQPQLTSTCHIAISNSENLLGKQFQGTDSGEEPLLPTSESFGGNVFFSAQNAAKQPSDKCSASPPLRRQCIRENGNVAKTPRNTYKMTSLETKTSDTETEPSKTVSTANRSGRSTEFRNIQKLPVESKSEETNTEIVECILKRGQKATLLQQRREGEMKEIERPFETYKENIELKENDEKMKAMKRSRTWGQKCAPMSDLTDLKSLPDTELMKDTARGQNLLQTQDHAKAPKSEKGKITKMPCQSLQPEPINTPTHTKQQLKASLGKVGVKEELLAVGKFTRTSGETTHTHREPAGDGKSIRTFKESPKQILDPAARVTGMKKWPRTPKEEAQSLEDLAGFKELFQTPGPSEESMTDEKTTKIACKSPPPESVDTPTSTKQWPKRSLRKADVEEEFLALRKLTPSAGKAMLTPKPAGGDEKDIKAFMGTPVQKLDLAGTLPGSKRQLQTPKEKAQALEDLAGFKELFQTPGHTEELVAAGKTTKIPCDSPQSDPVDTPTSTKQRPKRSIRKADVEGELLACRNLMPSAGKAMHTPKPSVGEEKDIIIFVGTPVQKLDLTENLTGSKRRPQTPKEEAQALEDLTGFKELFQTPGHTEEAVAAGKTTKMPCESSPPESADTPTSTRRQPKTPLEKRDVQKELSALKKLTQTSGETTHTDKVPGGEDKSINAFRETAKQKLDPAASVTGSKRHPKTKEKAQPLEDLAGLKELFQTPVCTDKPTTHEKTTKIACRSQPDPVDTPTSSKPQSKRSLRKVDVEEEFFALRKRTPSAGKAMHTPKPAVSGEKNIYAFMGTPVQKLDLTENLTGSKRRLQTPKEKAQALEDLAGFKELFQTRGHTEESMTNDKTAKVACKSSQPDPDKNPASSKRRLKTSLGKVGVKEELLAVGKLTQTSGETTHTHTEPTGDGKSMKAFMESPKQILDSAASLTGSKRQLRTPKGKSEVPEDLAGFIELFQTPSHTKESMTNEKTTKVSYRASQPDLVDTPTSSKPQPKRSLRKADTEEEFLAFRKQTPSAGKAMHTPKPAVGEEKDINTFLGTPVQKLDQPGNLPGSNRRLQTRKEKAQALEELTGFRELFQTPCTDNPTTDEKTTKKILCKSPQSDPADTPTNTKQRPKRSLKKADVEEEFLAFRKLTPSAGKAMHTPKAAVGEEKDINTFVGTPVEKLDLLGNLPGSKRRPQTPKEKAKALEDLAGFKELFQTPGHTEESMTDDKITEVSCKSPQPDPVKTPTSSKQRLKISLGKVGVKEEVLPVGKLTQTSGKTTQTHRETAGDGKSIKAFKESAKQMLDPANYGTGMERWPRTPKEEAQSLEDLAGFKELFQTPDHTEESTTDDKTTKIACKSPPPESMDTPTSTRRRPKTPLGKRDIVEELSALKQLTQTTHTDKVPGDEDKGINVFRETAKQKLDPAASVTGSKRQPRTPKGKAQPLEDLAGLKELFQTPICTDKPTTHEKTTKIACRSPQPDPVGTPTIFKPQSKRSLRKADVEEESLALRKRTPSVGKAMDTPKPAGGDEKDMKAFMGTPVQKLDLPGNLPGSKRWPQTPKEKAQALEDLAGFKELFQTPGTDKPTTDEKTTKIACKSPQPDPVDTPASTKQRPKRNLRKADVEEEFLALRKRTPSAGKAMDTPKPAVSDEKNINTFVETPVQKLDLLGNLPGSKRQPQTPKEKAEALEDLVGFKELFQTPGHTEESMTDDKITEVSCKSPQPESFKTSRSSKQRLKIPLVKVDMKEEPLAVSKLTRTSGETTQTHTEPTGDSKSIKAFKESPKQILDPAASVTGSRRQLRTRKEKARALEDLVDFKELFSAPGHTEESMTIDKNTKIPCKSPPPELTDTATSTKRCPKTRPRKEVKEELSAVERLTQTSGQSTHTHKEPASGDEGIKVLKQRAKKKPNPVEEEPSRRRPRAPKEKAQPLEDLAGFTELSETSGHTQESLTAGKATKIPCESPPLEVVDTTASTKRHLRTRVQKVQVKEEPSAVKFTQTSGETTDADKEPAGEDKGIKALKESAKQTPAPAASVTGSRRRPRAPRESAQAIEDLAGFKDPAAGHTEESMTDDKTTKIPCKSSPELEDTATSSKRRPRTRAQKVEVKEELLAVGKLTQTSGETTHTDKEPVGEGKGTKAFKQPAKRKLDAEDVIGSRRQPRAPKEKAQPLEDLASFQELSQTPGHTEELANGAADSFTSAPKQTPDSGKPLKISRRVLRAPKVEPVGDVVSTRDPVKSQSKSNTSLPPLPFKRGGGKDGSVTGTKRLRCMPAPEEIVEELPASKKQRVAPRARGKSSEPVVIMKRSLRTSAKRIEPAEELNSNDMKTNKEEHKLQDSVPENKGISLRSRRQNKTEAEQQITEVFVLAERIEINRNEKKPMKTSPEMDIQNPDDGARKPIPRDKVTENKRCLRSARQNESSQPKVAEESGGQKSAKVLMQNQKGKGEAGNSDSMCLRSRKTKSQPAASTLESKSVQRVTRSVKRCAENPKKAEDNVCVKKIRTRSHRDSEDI

- Ki-67-positive ratio [1]: 37.3
- Ki-67-positive ratio [2]: 19.8
- Ki-67-positive ratio [3]: 24.3
- Ki-67-positive ratio [4]: 6.52
- Ki-67-positive ratio [5]: 39.9
- Ki-67-positive ratio [6]: 33.1
B1: Ki-67 antibody (Dako, clone: MIB-1, mouse monoclonal antibody) (antibody, V domains shown)
VH: EVQLQESGPGILQPSQTLSLTCSFSSYHFGDIVGWIRQPSGKGLEWLAHNWKDINDNKYNTALKSRLTISKDTSNNQVFLKIASVDTADTATYYCASYGHYDHWGQGSTLTVSS
VL: DIVMTQSPLSLPVSLGDQASISCRSSSQSVINGQSNYLEWYLQKPGQSPKLLIYLVSNRFSGVPDRFSGSGSGTDFTLKISRVEAEDLGVYYCFQSGVHWPTFGGGTKL
